From article PMC12007569, “Molecular basis of pyruvate transport and inhibition of the human mitochondrial pyruvate carrier” (Science Advances, 2025) come the findings set out here.

The assay deals with T1, human MPC1L/MPC2 heterodimer (Homo sapiens, UniProt P0DKB6;O95563).
T1 construct: MPC1L, human, wild-type cDNA, UniProt P0DKB6; MPC2, human, wild-type cDNA, UniProt O95563; Heterodimer formed beforehand (co-expressed and co-purified) and then mixed with the nanobody or the Pro-macrobody; also called hMPC1L/MPC2; hMPC1L/2 heterodimer; source: S. cerevisiae W303-1B, purified from mitochondria (LMNG, Nickel Sepharose, on-column TEV digestion); not shown: His tag, C-terminal, …
Nature of the assay: pull-down; 75 μg hMPC1L/MPC2 incubated at a stoichiometric ratio with each nanobody for 1 hour at 4°C, then Ni-NTA Superflow resin 1 hour at 4°C; washed with buffer B, eluted with 250 mM imidazole; fractions on SDS-PAGE. The note with it: both partners purified.

T1 sequence (P0DKB6 whole entry, chain 1 of 2): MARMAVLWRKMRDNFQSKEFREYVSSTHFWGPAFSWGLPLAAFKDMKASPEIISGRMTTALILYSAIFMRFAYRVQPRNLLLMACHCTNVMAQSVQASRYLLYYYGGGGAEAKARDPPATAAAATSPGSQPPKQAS
T1 sequence (O95563 whole entry, chain 2 of 2): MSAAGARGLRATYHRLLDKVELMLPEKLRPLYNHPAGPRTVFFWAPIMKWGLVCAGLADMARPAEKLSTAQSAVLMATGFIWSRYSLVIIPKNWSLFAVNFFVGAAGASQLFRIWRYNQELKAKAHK

B1: nanobody CA19425 (VHH)
VHH: QVQLVESGGGLVQAGGSLRLSCAASGRTFSAYGISTYTMGWFRQAPGKEREFVAAIGRDSGFTYYEDSVKGRFTINADNAENTVYLQMNSLKPEDTAVYYCAASSYYGRPNVDLMAYWGKGTQVTVPP
notes: as the nanobody part of m4, held in the PMb chain of the deposited entries (modelled residues 4 to 131); One of six nanobodies (four families); also called MPC2-specific nanobody; source: from a phage display library (pMESy4) of a llama immunised with hMPC1L/MPC2 proteoliposomes
On to B1, for which the binding result is “binds”.
